Source: publication PMC7468209, “The Nucleoid Occlusion Protein SlmA Binds to Lipid Membranes” (mBio, 2020)

Molecular target: the molecule itself
Test: AUC; sedimentation velocity, 5 uM SlmA without SBS, working buffer (50 mM Tris-HCl pH 7.5, 5 mM MgCl2) with 100, 300 or 500 mM KCl, 48,000 rpm, 20 C, absorbance at 230 nm, c(s) in SEDFIT

B1: SlmA (natural protein, E. coli, UniProt P0C093 1-198, looked up)
chain: MAEKQTAKRNRREEILQSLALMLESSDGSQRITTAKLAASVGVSEAALYRHFPSKTRMFDSLIEFIEDSLITRINLILKDEKDTTARLRLIVLLLLGFGERNPGLTRILTGHALMFEQDRLQGRINQLFERIEAQLRQVLREKRMREGEGYTTDETLLASQILAFCEGMLSRFVRSEFKYRPTDDFDARWPLIAAQLQ
modifications: Alexa Fluor 488 on amino groups (0.3-0.6 mol dye per mol protein), only in the tracer fraction (1 uM of 5 uM) of the microdroplet experiments; unlabelled in the sedimentation velocity experiments
notes: SlmA, nucleoid occlusion protein of Escherichia coli; also called nucleoid occlusion protein SlmA; nucleoid occlusion factor SlmA
B1 was tested, and the “stoichiometry N” value was 2.
